This passage reports Kd results from patent US5869641.

The data set deals with CD4 (extracellular domain, aa 1-370) (Homo sapiens) (UniProt P01730). The data set is described as follows: flow. To be noted: 2'-F on all C and U; +-0.08; multimeric SA-PE complex, 3.2 RNA per SA-PE; L200-CD4 beads, PBS, 2 mM MgCl2, BSA, room temp.

By Kd is commonly meant the free concentration of one partner at which half of the binding sites on the other are occupied at equilibrium, for simple one-to-one binding. “GGGAGACAAGAAUAAACGCUCAANNNNNNNNNNNNNNNNNNNNNNNNNNNNNNNNNNNNNNNNUUCGACAGGAGGCUCACAACAGGC [15th round enriched RNA pool]” had a Kd of 1.5 nM.
